Data on one molecule can be found in paper PMC3074572 (2011).

A word on the Kd: it is the constant that tells how readily two partners part at equilibrium.

For this assay, the target named is TGFβ1 (Homo sapiens, UniProt P01137).
Chain of TGFβ1 (P01137 279-390): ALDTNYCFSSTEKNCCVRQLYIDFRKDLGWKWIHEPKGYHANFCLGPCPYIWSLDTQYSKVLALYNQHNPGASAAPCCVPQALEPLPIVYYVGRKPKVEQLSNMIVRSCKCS

KRIWFIPRSSWY [KRIWFIPRSSWY peptide] gave a Kd of 10.4 nM.
